Source: the supplement of paper PMC10724198
± gives the standard deviation of the averaged measurements.

Test system: Saccharomyces cerevisiae
Experiment: protein stability index of tFT-peptide fusion (C-terminal peptide) (PSI (0-1 scale)); higher = more stable (slower turnover)
Conditions: genetic background: wild type; temperature: 30 C
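Note: PSI is a weighted mean of sequencing reads over stability bins, variants kept only with over 10 reads, mCherry proximal and sfGFP distal, peptide attached via GGGS linker.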

Sequence	protein stability index
SARRFPPPPSSS	0.702 ± 0.046
SASSESTFLRAR	0.641 ± 0.012
SATALTANHPKM	0.677 ± 0.0096
SCITFGGWLGGM	0.709 ± 0.13
SCLCIHEIFLRL	0.672 ± 0.016
SCLWRGHDTVWL	0.662 ± 0.098
SCSFLISLLLLP	0.525 ± 0.023
SCTGGLVSVRGV	0.666 ± 0.023
SCVNGYSVCMCW	0.524 ± 0.046
SCWVLPFHYGSG	0.714 ± 0.026
SDDTIQNQICPG	0.66 ± 0.059
SDIHSSMTSGSF	0.669 ± 0.014
SDLKARYHCGRD	0.652 ± 0.075
SDPASVIPMELE	0.673 ± 0.052
SDRLLYLGNYDV	0.773 ± 0.0011
SDTPTHVLGPPY	0.716 ± 0.038
SEKKKKNKKNKK	0.714 ± 0.2
SELTCSSINSAT	0.673 ± 0.024
SENVSATLNNQD	0.708 ± 0.028
SEPCSASLSVSL	0.64 ± 0.045
SEPPFSFLNVSP	0.676 ± 0.018
SEVPCENSRRVV	0.667 ± 0.08
SFFFFSPFSRLS	0.693 ± 0.032
SFFFLVPFSVFL	0.586 ± 0.1
SFFLMTPPPSLR	0.698 ± 0.12
SFGLAPLSSFFC	0.705 ± 0.078

Sequence	protein stability index
SFGLSYYFRNSL	0.731 ± 0.066
SFLHSRAELPAG	0.604 ± 0.065
SFLIADLPSTPP	0.763 ± 0.13
SFLSPPSPPHSP	0.639 ± 0.01
SFPLPPLSPPSR	0.73 ± 0.048
SFPPPFLISLSP	0.676 ± 0.042
SFPPPHPPPPLP	0.6998 ± 0.0045
SFPPSPLPPPPR	0.586 ± 0.018
SFRVLCHGAQLL	0.634 ± 0.065
SFSRFFAIRPSF	0.723 ± 0.091
SFTSGFTDAGNI	0.6008 ± 0.0047
SFYSAALSCVFI	0.737 ± 0.15
SGACRLEESGKV	0.755 ± 0.061
SGGCDNGRMRWV	0.682 ± 0.07
SGGGGVLGWRGG	0.682 ± 0.022
SGGGVGGQVAVG	0.715 ± 0.087
SGGPDCLSMSGL	0.694 ± 0.025
SGGRSPYLLVGL	0.725 ± 0.053
SGGRVSGLVGEE	0.673 ± 0.031
SGGSALGCGRAA	0.658 ± 0.063
SGGVWWGRGRVS	0.727 ± 0.058
SGGWGGGDCVGA	0.69 ± 0.014
SGGWLAACYAVY	0.668 ± 0.032
SGKFVGCSFWMG	0.62 ± 0.016
SGLGRPHLRCLD	0.672 ± 0.042
SGLPPYTPPLSF	0.80558 ± 0.00056

Sequence	protein stability index
SGLRFLSWSVHV	0.6114 ± 0.0051
SGLSPPSRVCGY	0.651 ± 0.068
SGLWAGVDGRSS	0.6855 ± 0.0021
SGMGAIADENKE	0.635 ± 0.051
SGNDIQSLNIVI	0.754 ± 0.081
SGPSWSGGGWGR	0.648 ± 0.021
SGRSRVAGVERR	0.708 ± 0.062
SGSITAGLVRNV	0.6152 ± 0.0051
SGSSRLRTSPTG	0.814 ± 0.056
SGTGRINWEGFL	0.709 ± 0.03
SGVLRLSGTGAV	0.688 ± 0.0018
SGVSCPGRVDGG	0.68 ± 0.0085
SGVSRSGREFRN	0.634 ± 0.088
SGWRGVVGRGGR	0.625 ± 0.027
SHDLASRQSAFR	0.648 ± 0.059
SHFHSRDARRSP	0.673 ± 0.0068
SHKPDLTNVRFV	0.707 ± 0.044
SHLAHLHPHIAR	0.675 ± 0.026
SHLGTITPSSLL	0.662 ± 0.082
SHPWLLDCVTTF	0.706 ± 0.044
SHRSALLPFLPP	0.646 ± 0.046
SHSPAPSFPYFP	0.7367 ± 0.0026
SHSRRRTPSVTP	0.713 ± 0.083
SHTRPRPPLHLP	0.68 ± 0.038
SIDKINKLTPDV	0.648 ± 0.052
SIIATHNNNSIW	0.694 ± 0.014

Sequence	protein stability index
SILRRFSPPPLL	0.75 ± 0.051
SISLVLPASCIT	0.693 ± 0.021
SISQSSSLGLED	0.677 ± 0.046
SISSFLPRRLPF	0.662 ± 0.033
SIVRWLTSSLIH	0.787 ± 0.17
SIVSTPGATACL	0.67281 ± 0.00029
SIYLLQRRQFDP	0.677 ± 0.048
SKGSVFGNMGYR	0.6741 ± 0.0063
SKIQDHLNTAPE	0.654 ± 0.058
SKKLSMNIIITN	0.653 ± 0.0047
SKKRHSKNRKSV	0.71 ± 0.032
SKNEIKNYNTKI	0.642 ± 0.031
SKNQEDEYTIHE	0.7 ± 0.024
SKNQQKKCQMIT	0.534 ± 0.038
SKRIKIEFYVNQ	0.688 ± 0.12
SKSLRAAQGGRT	0.684 ± 0.016
SKYVVQSENITG	0.699 ± 0.015
SLALPLLPPSSP	0.739 ± 0.05
SLALSPQFLSFP	0.749 ± 0.081
SLAPSARLYPYH	0.768 ± 0.03
SLARGFVVPMWP	0.707 ± 0.045
SLCPVTPPSVGF	0.656 ± 0.02
SLDFRSARFSLG	0.65 ± 0.014
SLDQGRLRRLVG	0.641 ± 0.061
SLEALARDRFCT	0.724 ± 0.014
SLESRGLRSRHY	0.633 ± 0.073

Sequence	protein stability index
SLFLLFRSRACS	0.539 ± 0.011
SLFMRLPLQSSF	0.65 ± 0.041
SLGFMALFYLPL	0.649 ± 0.016
SLGWVRDRICSD	0.75 ± 0.17
SLISRAFYSFSP	0.699 ± 0.04
SLLFPPSPPPPA	0.673 ± 0.011
SLLLFPCPWFGL	0.677 ± 0.019
SLLLPPRPPPRV	0.744 ± 0.055
SLLPPSPPPSRL	0.724 ± 0.066
SLLPSSFRAPAP	0.652 ± 0.045
SLLQSLPSPPPP	0.639 ± 0.011
SLNQWTGTTLRQ	0.66 ± 0.02
SLPAFLPAPPLF	0.6962 ± 0.002
SLPAPPPPPPPH	0.727 ± 0.034
SLPDTSPSLHPP	0.59 ± 0.011
SLPPLASPPASI	0.72 ± 0.1
SLPPPLPRRPPP	0.729 ± 0.13
SLPPRPCPSHLH	0.786 ± 0.081
SLPRWLPPPLQS	0.687 ± 0.0095
SLPSLLFLISLP	0.543 ± 0.054
SLPSRPLSFYSP	0.715 ± 0.068
SLPWVLLPTGPY	0.751 ± 0.075
SLQTHCHKGPLS	0.718 ± 0.0099
SLRLMTFPPLLL	0.68 ± 0.08
SLRPPLRPPTVV	0.601 ± 0.017
SLSAPPPRSTSP	0.597 ± 0.021

Sequence	protein stability index
SLSFSLPLFSLG	0.681 ± 0.013
SLSPARKDSSLP	0.683 ± 0.15
SLSPPSPTPSHS	0.7347 ± 0.0043
SLSSAALFHGPF	0.598 ± 0.065
SLSSPILYLFAS	0.65 ± 0.013
SLTCRKQTVRVI	0.53 ± 0.012
SLVSYSPPLPPP	0.681 ± 0.034
SLWGFWRVVGRR	0.594 ± 0.052
SLYRSAARHLGI	0.754 ± 0.037
SMFGSVGLMPCG	0.656 ± 0.02
SMLLFFLPSSSS	0.641 ± 0.046
SMLVPLPPFSSA	0.694 ± 0.0097
SMRLELAALLVI	0.546 ± 0.033
SMVLRTIKKRNI	0.661 ± 0.015
SNKKRTRNEGKD	0.6109 ± 0.0047
SNNKSIRKGVSI	0.79002 ± 6.2e-05
SNQKGQIYYEPS	0.706 ± 0.08
SNQRQRETKREE	0.677 ± 0.039
SNRSVININIRI	0.616 ± 0.058
SPACFKIFCRCF	0.523 ± 0.046
SPAFSLIPCPLF	0.742 ± 0.059
SPATDRTSLFES	0.729 ± 0.022
SPCPPPPAHPPR	0.728 ± 0.026
SPDLTRPPLPPP	0.693 ± 0.015
SPFPFLLTAPLA	0.538 ± 0.0094
SPGPPLLLPPPL	0.688 ± 0.085

Sequence	protein stability index
SPGRSSTLPPVF	0.7101 ± 0.00072
SPGRVSRGNASV	0.645 ± 0.017
SPGSSIFLYFFT	0.729 ± 0.022
SPHTPDPTTTPH	0.648 ± 0.097
SPLETLLCTPSI	0.675 ± 0.019
SPLPPPPHPSPF	0.505 ± 0.017
SPLRPPSLPAPG	0.653 ± 0.015
SPLRSCPADPSQ	0.763 ± 0.082
SPLSLPSIPFGV	0.672 ± 0.075
SPLTYTAPRCPR	0.82 ± 0.088
SPLVSSPPPALL	0.643 ± 0.081
SPPALPRPPRRP	0.708 ± 0.044
SPPHPRPPTLRT	0.609 ± 0.013
SPPLSLPFFPRP	0.641 ± 0.019
SPPPAPVPAPPR	0.678 ± 0.048
SPPPPRPPSQPS	0.674 ± 0.021
SPPPPTPPLSPP	0.669 ± 0.0051
SPPPSSTSTSTS	0.688 ± 0.061
SPPPTSHPSAPP	0.638 ± 0.056
SPPSPFAFPLPP	0.67473 ± 0.00064
SPPSPPSPPPLV	0.745 ± 0.013
SPPSPYPPPLDR	0.695 ± 0.021
SPPSSFPVFTLL	0.728 ± 0.05
SPPTPRIPPPLP	0.663 ± 0.035
SPPTSPAPLPPP	0.6502 ± 0.0032
SPPTTHPPSSHG	0.7486 ± 0.0062

Sequence	protein stability index
SPPWGQGSVSSK	0.729 ± 0.052
SPQPPHSPLSAR	0.653 ± 0.024
SPRFLLNCWGRL	0.821 ± 0.027
SPRGRGARRGRI	0.705 ± 0.028
SPRLHFPPRHPC	0.717 ± 0.015
SPRLLPSPTRVA	0.643 ± 0.059
SPRLSGVPGHAP	0.663 ± 0.027
SPRPTRPALLPP	0.708 ± 0.033
SPRRWVSGHPRG	0.711 ± 0.042
SPRSPACPTPDR	0.734 ± 0.011
SPRSPPSPPPRP	0.746 ± 0.045
SPRSPPSTSSPQ	0.6802 ± 0.001
SPSGCVGSSAQS	0.68061 ± 0.00045
SPSLAPSPSALL	0.598 ± 0.018
SPSLPPLSPPNP	0.699 ± 0.039
SPSPLSHSPLAF	0.647 ± 0.009
SPSPPLAPPSPS	0.671 ± 0.0073
SPSPPSLLPAPS	0.74 ± 0.062
SPSQRPLPSISP	0.718 ± 0.01
SPSSLPPVPPSP	0.6764 ± 0.0036
